Assay results: patent US20170306032A1 (RESEARCH CORPORATION TECHNOLOGIES, published 2017)
Changes are numbered by the printed parent chain.

B1: E10 modified CH2 domain (first generation loop 2 clone, parental clone of the affinity maturation) (designed binder)
chain: GPSVFLFPPKPKDTLMISRTPEVTCVVVDVSHEDPEVKFNWYVDGAEVHHAQTKPRQYDPLYGYRVVSVLTVLHQDWLNGKEYKCKVSNKALPAPIEKTISKAK
notes: purified protein elsewhere; also called E10par
B2: H3 (first generation loop 2 clone, loop 2 AYYALGG) (designed binder)
chain: B1 chain with Q57A, D59Y, P60A, Y62G
notes: From library #15 (Glu293 to Thr299 randomised); A9 is kept apart as m12; also called H3par
B3: D2 modified CH2 domain (affinity matured, loop 1 YEAAAL, loop 2 of E10) (designed binder)
chain: B1 chain with V30Y, S31E, H32A, E33A, D34A, P35L
notes: Expressed in Shuffle cells, purified on HisTrap
B4: B11 modified CH2 domain (affinity matured, loop 1 YRADYL, loop 2 of E10) (designed binder)
chain: B1 chain with V30Y, S31R, H32A, E33D, D34Y, P35L
B5: H6 modified CH2 domain (first generation loop 2 clone) (designed binder)
chain: B1 chain with Q57R, Y58V, Y62G
notes: purified on a Nickel column from E. coli periplasm for protein ELISA and SPR
B6: G7 modified CH2 domain (affinity matured, loop 1 PHLGVD, loop 2 of E10) (designed binder)
chain: B1 chain with V30P, S31H, H32L, E33G, D34V, P35D
B7: wild type CH2D (wild type human IgG CH2 domain) (other)
chain: APELLGGPSVFLFPPKPKDTLMISRTPEVTCVVVDVSHEDPEVKFNWYVDGVEVHNAKTKPREEQYNSTYRVVSVLTVLHQDWLNGKEYKCKVSNKALPAPIEKTISKAK
notes: also called CH2wt
B8: B11 modified CH2 domain SEQ ID NO: 91 (C terminal cysteine) conjugated with Biotin-dPEG11 (designed binder)
chain: GPSVFLFPPKPKDTLMISRTPEVTCVVVDYRADYLDVKFNWYVNGAEVHHAQTKPRQYDPLYGYRVVSVLTVTHQDWLNGKEYTCKVSNKALPAPIQKTISKDC
modifications: conjugated with Biotin-dPEG11-MAL after reduction with DTT; the residue that carries it is not stated (chain has a C terminal cysteine)
notes: also called B11-dPEG-biotin
B9: B11 modified CH2 domain SEQ ID NO: 89 (C terminal cysteine and N terminal hinge sequence) conjugated with Biotin-dPEG11 (designed binder)
chain: GSCDKTHTAPEKKGGPSVFLFPPKPKDTLMISRTPEVTCVVVDYRADYLDVKFNWYVNGAEVHHAQTKPRQYDPLYGYRVVSVLTVTHQDWLNGKEYTCKVSNKALPAPIQKTISKDC
modifications: conjugated with Biotin-dPEG11-MAL after reduction with DTT; the residue that carries it is not stated (chain has a C terminal cysteine)
notes: also called B11-dPEG-biotin
B10: B11 modified CH2 domain SEQ ID NO: 90 (N terminal hinge sequence) conjugated with Biotin-dPEG11 (designed binder)
chain: B9 chain with C118K
modifications: conjugated with Biotin-dPEG11-MAL after reduction with DTT; the residue that carries it is not stated
notes: also called B11-dPEG-biotin

Columns and labels:
[1] = molecular target: T1, mouse EphA2 recombinant protein (Fc chimera, R&D Systems, cat#639-A2) (mouse, UniProt Q03145 26-535); experiment: SPR, Biacore 3000, on mEphA2
T1 construct: Biotinylated for the Octet assay; also called mEphA2-Fc; mEphA2; Fc part of the bought chimera not given
T1 sequence (Q03145 26-535, change not shown): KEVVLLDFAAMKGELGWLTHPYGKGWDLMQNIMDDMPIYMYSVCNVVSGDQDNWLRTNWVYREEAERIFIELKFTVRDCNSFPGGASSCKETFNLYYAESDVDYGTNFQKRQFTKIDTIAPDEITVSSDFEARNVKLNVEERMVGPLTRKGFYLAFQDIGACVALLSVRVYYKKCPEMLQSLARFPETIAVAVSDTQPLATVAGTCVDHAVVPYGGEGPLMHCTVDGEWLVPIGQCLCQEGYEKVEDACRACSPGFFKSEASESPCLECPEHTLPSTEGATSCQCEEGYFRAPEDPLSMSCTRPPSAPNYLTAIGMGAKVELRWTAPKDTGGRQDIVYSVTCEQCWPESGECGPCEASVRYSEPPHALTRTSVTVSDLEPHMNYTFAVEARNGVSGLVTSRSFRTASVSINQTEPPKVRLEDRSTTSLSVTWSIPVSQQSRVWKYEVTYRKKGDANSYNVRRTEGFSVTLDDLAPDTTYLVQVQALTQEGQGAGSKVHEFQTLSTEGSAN

[2] = molecular target: T2, human EphA2 recombinant protein (purified human EphA2 extracellular domain) (human, UniProt P29317 24-537); experiment: phage ELISA on coated hEphA2, anti-M13-HRP, developed 30 min
T2 construct: extracellular domain; Biotinylated for the Octet assay; also called hEphA2; huEphA2
T2 sequence (P29317 24-537): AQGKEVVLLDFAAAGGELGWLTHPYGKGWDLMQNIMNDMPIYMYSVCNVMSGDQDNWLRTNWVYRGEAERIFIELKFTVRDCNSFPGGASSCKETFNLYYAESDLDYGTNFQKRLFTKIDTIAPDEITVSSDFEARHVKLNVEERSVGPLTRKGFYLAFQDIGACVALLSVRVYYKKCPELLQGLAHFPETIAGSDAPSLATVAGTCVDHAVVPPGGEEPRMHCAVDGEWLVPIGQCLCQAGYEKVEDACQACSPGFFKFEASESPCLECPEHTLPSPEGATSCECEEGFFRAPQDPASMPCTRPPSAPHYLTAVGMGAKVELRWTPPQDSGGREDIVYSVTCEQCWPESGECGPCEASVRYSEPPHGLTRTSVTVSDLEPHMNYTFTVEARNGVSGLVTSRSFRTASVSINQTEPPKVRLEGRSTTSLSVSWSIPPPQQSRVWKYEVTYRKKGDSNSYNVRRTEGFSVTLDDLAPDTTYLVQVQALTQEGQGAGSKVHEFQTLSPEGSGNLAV

[3] = molecular target: T3, human EphA2 receptor expressed on cells (HEK293-EphA2, CHO-EphA2, PC-3) (human, UniProt P29317 24-976); experiment: phage ELISA on fixed HEK293 cells with doxycycline-induced EphA2 (NO DOX, 100, 50, 25 ng/ml), anti-M13-HRP
T3 construct: whole, on cells; also called EphA2 transfected cells; HEK293-EphA2 overexpressing cells
T3 sequence (P29317 24-976): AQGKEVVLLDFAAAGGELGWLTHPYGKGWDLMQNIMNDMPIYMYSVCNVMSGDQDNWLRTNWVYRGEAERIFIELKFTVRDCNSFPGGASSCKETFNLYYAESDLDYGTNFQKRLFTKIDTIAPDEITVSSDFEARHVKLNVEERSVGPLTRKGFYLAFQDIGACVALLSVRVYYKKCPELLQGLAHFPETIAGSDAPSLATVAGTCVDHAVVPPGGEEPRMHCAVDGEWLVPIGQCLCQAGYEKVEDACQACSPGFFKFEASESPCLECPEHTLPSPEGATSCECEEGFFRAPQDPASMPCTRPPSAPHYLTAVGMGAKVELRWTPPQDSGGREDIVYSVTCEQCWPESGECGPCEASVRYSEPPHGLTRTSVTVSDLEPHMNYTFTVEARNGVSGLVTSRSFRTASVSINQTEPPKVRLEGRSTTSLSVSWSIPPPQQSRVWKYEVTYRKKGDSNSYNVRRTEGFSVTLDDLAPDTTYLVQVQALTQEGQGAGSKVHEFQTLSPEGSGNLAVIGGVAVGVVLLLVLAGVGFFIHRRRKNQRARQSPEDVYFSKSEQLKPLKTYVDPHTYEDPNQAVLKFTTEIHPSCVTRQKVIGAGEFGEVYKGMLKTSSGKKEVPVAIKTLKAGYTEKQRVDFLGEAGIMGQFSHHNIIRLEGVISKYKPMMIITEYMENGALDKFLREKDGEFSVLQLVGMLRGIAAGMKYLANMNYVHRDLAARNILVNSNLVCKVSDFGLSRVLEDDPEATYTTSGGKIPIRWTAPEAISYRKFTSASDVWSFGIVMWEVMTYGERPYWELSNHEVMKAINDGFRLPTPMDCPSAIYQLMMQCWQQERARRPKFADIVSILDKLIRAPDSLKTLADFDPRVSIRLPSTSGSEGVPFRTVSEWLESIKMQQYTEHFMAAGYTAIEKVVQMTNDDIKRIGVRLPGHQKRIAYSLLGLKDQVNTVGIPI

[4] = molecular target: BSA (bovine serum albumin, control) (bovine, UniProt P02769 25-607); experiment: phage ELISA on coated BSA, anti-M13-HRP
BSA (bovine serum albumin, control), sequence (P02769 25-607 limits assumed): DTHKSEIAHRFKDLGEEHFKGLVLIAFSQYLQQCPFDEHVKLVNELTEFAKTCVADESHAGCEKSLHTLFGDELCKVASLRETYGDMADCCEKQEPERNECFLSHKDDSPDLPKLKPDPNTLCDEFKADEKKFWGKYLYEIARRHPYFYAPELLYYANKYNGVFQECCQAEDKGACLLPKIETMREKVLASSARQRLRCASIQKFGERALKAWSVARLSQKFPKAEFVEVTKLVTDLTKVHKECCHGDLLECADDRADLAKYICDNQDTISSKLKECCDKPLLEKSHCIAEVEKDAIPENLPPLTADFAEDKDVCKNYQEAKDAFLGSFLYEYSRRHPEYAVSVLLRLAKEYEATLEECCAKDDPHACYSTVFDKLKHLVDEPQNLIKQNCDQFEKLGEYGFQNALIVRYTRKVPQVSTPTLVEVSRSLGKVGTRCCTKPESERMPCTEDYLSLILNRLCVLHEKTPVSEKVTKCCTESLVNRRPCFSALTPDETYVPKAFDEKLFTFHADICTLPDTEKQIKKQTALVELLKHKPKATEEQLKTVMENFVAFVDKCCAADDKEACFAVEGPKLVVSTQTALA

FcRn = molecular target: T4, FcRn; experiment: SPR
T4 construct: also called neonatal receptor FcRn
T4 sequence (P55899 24-297, chain 1 of 2): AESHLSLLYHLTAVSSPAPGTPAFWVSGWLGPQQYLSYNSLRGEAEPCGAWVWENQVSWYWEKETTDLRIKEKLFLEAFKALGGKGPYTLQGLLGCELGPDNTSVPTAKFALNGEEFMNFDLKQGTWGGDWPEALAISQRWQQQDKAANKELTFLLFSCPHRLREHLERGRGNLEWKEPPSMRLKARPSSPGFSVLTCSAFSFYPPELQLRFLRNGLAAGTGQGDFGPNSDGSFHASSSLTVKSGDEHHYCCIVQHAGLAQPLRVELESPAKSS
T4 sequence (P61769 21-119, chain 2 of 2, further chain): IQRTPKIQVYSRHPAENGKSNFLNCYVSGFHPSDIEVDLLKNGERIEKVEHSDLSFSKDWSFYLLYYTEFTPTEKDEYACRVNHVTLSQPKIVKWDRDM

[5] = molecular target: T1, mouse EphA2 recombinant protein (Fc …); experiment: BLI, Octet Red, biotinylated mEphA2 on streptavidin sensors, steady state fit (column head prints EC50, title KD)
[6] = molecular target: T1, mouse EphA2 recombinant protein (Fc …); experiment: end-point titration ELISA on mEphA2
[7] = molecular target: T2, human EphA2 recombinant protein …; experiment: BLI, Octet Red, biotinylated huEphA2 on streptavidin sensors, steady state fit (column head prints EC50, title KD)
[8] = molecular target: T2, human EphA2 recombinant protein …; experiment: end-point titration ELISA on huEphA2
[9] = molecular target: T3, human EphA2 receptor expressed on cells …; experiment: FACS on CHO cells transfected with human EphA2
[10] = molecular target: T2, human EphA2 recombinant protein …; experiment: SPR, Biacore 3000, immobilized huEphA2 extracellular domain, KDkinetic
[11] = molecular target: T2, human EphA2 recombinant protein …; experiment: SPR, Biacore 3000, immobilized huEphA2 extracellular domain
[12] = molecular target: T2, human EphA2 recombinant protein …; experiment: SPR, Biacore 3000, immobilized huEphA2 extracellular domain, KDequilibrium
[13] = molecular target: T3, human EphA2 receptor expressed on cells …; experiment: FACS titration on human EphA2 transfected CHO cells, anti-His-FITC detection [upper panel]
[14] = molecular target: T3, human EphA2 receptor expressed on cells …; experiment: immunofluorescence on PC-3 cells expressing endogenous EphA2 receptor, 4° C. for 30 minutes

Row | Binder | Kd [1] | koff [1] | kon [1] | Kd [5] | EC50 [6] | Kd [7] | EC50 [8] | EC50 [9] | binding result [14] | other results
1 | B1 | 97 nM | 0.008 s⁻¹ | 79100 M⁻¹ s⁻¹ | – | – | – | – | – | – | binding result [2]: binds; binding result [3]: binds; binding result [4]: no binding; Kd (FcRn): 3260 nM
2 | B2 | 383 nM | 0.014 s⁻¹ | 36400 M⁻¹ s⁻¹ | – | – | – | – | – | – | –
3 | B3 | – | – | – | 18 nM | 1.97 nM | 20 nM | 2.55 nM | 1310 nM | – | –
4 | B4 | – | – | – | 5.5 nM | 9.89 nM | 3.1 nM | 4.43 nM | 403 nM | – | Kd [10]: 13 nM; koff [11]: 0.0158 s⁻¹; kon [11]: 1.21e+06 M⁻¹ s⁻¹; Kd [12]: 13.9 nM
5 | B5 | 873 nM | 0.008 s⁻¹ | 9610 M⁻¹ s⁻¹ | – | – | – | – | – | – | binding result [2]: binds; binding result [3]: binds; binding result [4]: no binding
6 | B6 | – | – | – | 21 nM | 3.18 nM | 18 nM | 8.06 nM | 333 nM | – | Kd [10]: 21 nM; koff [11]: 0.0375 s⁻¹; kon [11]: 1.8e+06 M⁻¹ s⁻¹; Kd [12]: 22 nM
7 | B7 | – | – | – | – | – | – | – | – | – | Kd (FcRn): 1660 nM; binding result [13]: no binding (tested: about 3.6 µM)
8 | B8 | – | – | – | – | – | – | – | – | binds | –
9 | B9 | – | – | – | – | – | – | – | – | binds | –
10 | B10 | – | – | – | – | – | – | – | – | binds | –
